T1: human Ig1,2 TrkA (recombinant D4-D5 domain of human TrkA receptor) (human, UniProt P04629 191-392)
T1 construct: also called hTrkA Ig1,2; TrkA Ig1,2
T1 chain: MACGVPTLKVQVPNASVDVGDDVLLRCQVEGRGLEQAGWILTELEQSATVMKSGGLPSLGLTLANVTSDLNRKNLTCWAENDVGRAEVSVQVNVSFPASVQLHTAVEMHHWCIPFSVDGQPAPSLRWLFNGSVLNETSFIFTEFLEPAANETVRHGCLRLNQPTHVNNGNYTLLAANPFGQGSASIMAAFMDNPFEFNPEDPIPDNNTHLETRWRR

T2: human p75 immunoadhesin (human; Camelus dromedarius, UniProt P08138 29-250)
T2 construct: extracellular domain; also called hp75-Fc; p75NTR immunoadhesin; not shown: Fc portion (immunoglobulin heavy chain constant region) of IgG2a camel antibody (Camelus dromedarius)
T2 sequence (looked up): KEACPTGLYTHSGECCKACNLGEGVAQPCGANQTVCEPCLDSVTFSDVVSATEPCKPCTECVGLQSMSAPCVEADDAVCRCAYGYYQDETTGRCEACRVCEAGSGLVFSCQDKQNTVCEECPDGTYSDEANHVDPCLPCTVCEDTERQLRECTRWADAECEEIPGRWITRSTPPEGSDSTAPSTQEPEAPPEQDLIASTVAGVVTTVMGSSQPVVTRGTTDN


Legend:
[1] = biological target: T3, mouse Ig1,2 TrkA (recombinant D4-D5 domain of murine TrkA receptor) (mouse, UniProt Q3UFB7 193-413); assay: SPR (Biacore X-100); scFv immobilised on CM5 chip, mouse Ig1,2 TrkA injected
T3 construct: also called mTrkA Ig1,2
T3 sequence (Q3UFB7 other isoform, or with tags, fused parts or gaps limits assumed): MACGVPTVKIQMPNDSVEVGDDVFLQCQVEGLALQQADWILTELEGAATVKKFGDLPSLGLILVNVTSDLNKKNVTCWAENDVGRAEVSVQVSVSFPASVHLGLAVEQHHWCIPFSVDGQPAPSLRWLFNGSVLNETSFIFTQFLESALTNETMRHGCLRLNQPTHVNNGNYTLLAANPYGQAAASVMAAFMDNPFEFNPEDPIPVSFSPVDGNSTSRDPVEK
Description: (§1) The antibodies were also shown to be specific for hTrkA and mTrkA by relative binding to the BIACore sensor chips coated with the appropriate antigen. Antibodies were immobilized by ammine coupling to Biosensor CM5 sensorchips (Pharmacia) according to the manufacturers instructions. Anti-TrkA scFv proteins were diluted at 20-50 μg/ml in suitable pre-concentration buffer (at least 2 pH unit below the pI of the scFv in order to get a net positive charge), chosen among the Acetate buffers. The scFvs were immobilized at 100 RU to get a low density immobilization. As binder, the recombinant protein consisting of D4-D5 domain of human and murine TrkA receptor (hTrkA Ig1,2 and mTrkA Ig1,2 respectively) were injected over the immobilized scFv with a contact time of 60 seconds and with a dissociation time of 400 seconds and the assay workflow placed 5 serial dilutions of the TrkA Ig1,2 (starting in the micromolar range and diluting 1:2 each time). The regeneration condition were mild (contact time 30 seconds, 10 mM Glycine pH2). On the basis of the resulting sensorgrams, the concentrations of TrkA Ig1,2 were adjusted to optimize, contact time, dissociation time and regeneration. Data were analysed by Bioevaluation Software (see results on Table II and Table III). The quality of the data fitting were checked by the value of Chi² and of the U-value.
(§2) We have carried out surface plasmon resonance (SPR) analyses to determine the binding kinetics of a panel of isolated anti-TrkA scFvs (SEQ ID NOs: 1, 2, 3, 4, 5, 6, 7, 8, 9, 10, 11, 12, 13, 14, 15 and 16). The scFvs were immobilized on a CM5 chip followed by injections at various concentration of human and murine Ig 1,2 TrkA (SEQ ID NO: 78) and mouse Ig1,2 TrkA (SEQ ID NO: 79).

[2] = biological target: T4, human TrkA receptor (native, on TF-1 cells) (human, UniProt P04629 33-796); assay: chip-based flow cytometry (Agilent Bioanalyzer 2100) on TF-1 cells expressing human TrkA; scFv at 5 µg/ml per paragraph 159
T4 construct: also called TF1 expressing TrkA receptor; TF-1 cell line expressing human TrkA receptor
T4 sequence (P04629 33-796 limits assumed): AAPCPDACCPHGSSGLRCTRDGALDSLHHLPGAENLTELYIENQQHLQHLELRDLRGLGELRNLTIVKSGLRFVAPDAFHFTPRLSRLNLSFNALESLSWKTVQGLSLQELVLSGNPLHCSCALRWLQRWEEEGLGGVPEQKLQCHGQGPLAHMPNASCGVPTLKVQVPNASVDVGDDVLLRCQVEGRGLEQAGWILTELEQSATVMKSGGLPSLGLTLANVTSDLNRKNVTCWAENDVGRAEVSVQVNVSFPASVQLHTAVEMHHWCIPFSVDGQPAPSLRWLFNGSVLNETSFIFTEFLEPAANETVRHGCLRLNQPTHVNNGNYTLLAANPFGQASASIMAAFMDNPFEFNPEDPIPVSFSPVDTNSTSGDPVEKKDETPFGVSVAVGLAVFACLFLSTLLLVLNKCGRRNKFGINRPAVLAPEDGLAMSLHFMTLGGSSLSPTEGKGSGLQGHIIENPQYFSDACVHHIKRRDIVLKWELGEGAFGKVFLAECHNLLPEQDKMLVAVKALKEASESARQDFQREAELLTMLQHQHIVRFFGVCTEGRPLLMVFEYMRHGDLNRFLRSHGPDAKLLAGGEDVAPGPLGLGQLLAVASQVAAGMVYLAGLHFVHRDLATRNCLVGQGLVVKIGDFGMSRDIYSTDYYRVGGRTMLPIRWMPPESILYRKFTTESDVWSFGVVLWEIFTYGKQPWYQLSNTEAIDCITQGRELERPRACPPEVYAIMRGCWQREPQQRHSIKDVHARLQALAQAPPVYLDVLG
Description: FIG. 5. FACS analysis performed with Bioanalyzer 2100. A cell fluid chip-based fluorescent cytometric assay that runs on Bioanalyzer 2100 (Agilent) for fast characterization of small population cell phenotypes was assessed. The assay determines the expression of specific cell surface markers. In this experiment, the specificity of scFvs on TF-1 cell line expressing human TrkA receptor was assessed. Six samples can be analyzed on each chip in one automated process. Results were in good agreement with conventional flow cytometry in quantisation.
10⁶ cells/sample=tot: 6×10⁶ cells are first centrifuged at 350 g for 5 min at room temperature (RT) and wash with 12 ml of Staining Buffer (SB) at RT. The pellet was resuspended in 3 ml of SB at 4° C. and aliquot 0.5 ml of suspension in 1.5 ml conical tubes. Cells were centrifuged again at 350 g for 5 min at 4° C. and the pellet was resuspended in 1 ml HBSS at 4° C. 125 μl 16% p-formaldehyde (final conc 1.7%) was added into each tube and then the sample was incubated for 10 min at 4° C. on tube rotator. After 10 minutes, 75 μl of 10% detergent solution-Tween 20 (final conc 0.6%) was added and the samples were then incubated for 10 min at 4° C. on tube rotator. Samples were then washed once with FACS Buffer (0.8 ml/sample) at 4° C. and then centrifuged at 350 g for 5 min at 4° C. Cells were resuspended with 80 μl/sample of FACS Buffer. 20 μl of a 5× primary antibody solution were added (final concentration of scFvs is 5 μg/ml). After incubation for 1 hour at 4° C. on tube rotator samples were washed with FACS Buffer (0.5 ml/sample) at 4° C. and then centrifuged 5 min at 350 g at 4° C. Cells were resuspended with 80 μl/sample of FACS Buffer. 20 μl of a 5× secondary antibody solution were added. Final concentration of mouse anti-V5 antibody is 0.20 μg/ml. The samples were incubated for 1 hour at 4° C. on tube rotator. After incubation for 1 hour at 4° C. on tube rotator samples were washed with FACS Buffer (0.5 ml/sample) at 4° C. and then centrifuged 5 min at 350 g at 4° C. Cells were resuspended with 80 μl/sample of FACS Buffer. 20 μl of a 5× tertiary antibody solution were added. Final concentration of anti-mouse IgG-Cy5 is 4 μg/ml (1:250 diluted). The samples were incubated for 1 hour at 4° C. on tube rotator.

[3] = biological target: T1, human Ig1,2 TrkA (recombinant D4-D5 …); assay: SPR (Biacore X-100); scFv immobilised on CM5 chip, human Ig1,2 TrkA injected
Description: as §1, §2

human TrkB immunoadhesin = biological target: T5, human TrkB immunoadhesin (human; Camelus dromedarius, UniProt Q16620 32-430); assay: specificity ELISA, antigens coated at 2 µg/mL, scFv at 50 ug/mL (upper panel) and 5 ug/mL (lower panel), OD 450 nm
T5 construct: extracellular domain; also called hTrkB-Fc; TrkB immunoadhesins; not shown: Fc portion (immunoglobulin heavy chain constant region) of IgG2a camel antibody (Camelus dromedarius)
T5 sequence (Q16620 32-430): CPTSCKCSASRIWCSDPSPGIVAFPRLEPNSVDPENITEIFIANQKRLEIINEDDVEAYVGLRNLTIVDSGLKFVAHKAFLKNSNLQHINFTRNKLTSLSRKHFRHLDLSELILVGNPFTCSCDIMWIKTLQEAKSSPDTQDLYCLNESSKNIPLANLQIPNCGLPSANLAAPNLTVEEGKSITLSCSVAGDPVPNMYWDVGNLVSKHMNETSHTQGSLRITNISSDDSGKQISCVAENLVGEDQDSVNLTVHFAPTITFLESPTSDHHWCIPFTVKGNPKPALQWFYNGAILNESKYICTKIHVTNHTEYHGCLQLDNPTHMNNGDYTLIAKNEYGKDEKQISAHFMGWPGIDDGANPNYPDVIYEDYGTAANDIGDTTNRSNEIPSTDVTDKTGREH
Description: (§3) FIG. 3. Specificity ELISA of isolated anti-TrkA scFvs versus human TrkA immunoadhesin (hTrkA-Fc), human TrkB immunoadhesins (hTrkB-Fc), human TrkC immunoadhesins (hTrkC-Fc) and human p75 immunoadhesins (hp75-Fc). Human antigens were coated at 2 μg/mL. Anti-TrkA scFvs were used at 50 μg/mL (upper panel) and/or 5 μg/mL (lower panel). The mean absorbance at 450 nm of the experiments performed in duplicate wells is shown with SD indicated by the bars.

human TrkC immunoadhesin = biological target: T6, human TrkC immunoadhesin (human; Camelus dromedarius, UniProt Q16288 32-429); assay: as above
T6 construct: extracellular domain; also called hTrkC-Fc; TrkC immunoadhesins; not shown: Fc portion (immunoglobulin heavy chain constant region) of IgG2a camel antibody (Camelus dromedarius)
Description: as §3

human p75 immunoadhesin = biological target: T2, human p75 immunoadhesin; assay: as above
Description: as §3

Row | Binder | Kd [1] | koff [1] | kon [1] | binding result [2] | Kd [3] | koff [3] | kon [3] | binding result (human TrkB immunoadhesin) | binding result (human TrkC immunoadhesin) | binding result (human p75 immunoadhesin)
1 | anti-TrkA scFv CRB0022 (scFv, From mSPLINT selection) scFv: DIVLTQSPALMSASPGEKVTMTCSASSSVSYMYWYQQKPRSSPKPWIYLTSNLASGVPARFSGSGSGTSYSLTISSMEAEDAATYYCQQWSSNPYTFGGRTRLEIKPSGGSTSGSGKPGSGEDSSGAQVQLQQSGAELVKPGASVELSCTASGFNIKDTYMHWVKQRPEQGLEWIGGIDPANGNTIYVPKFQGKATITADTSSNTAYLQLSSLTSEDTAVYYCARGGYDFDYAMDYWGQGTSVTVSS | 1.16 nM | 1.09e-05 s⁻¹ | 9430 M⁻¹ s⁻¹ | binds | 3.2 nM | 2.94e-05 s⁻¹ | 9190 M⁻¹ s⁻¹ | no binding (tested: 50 ug/mL) | no binding (tested: 50 ug/mL) | no binding (tested: 50 ug/mL)
2 | anti-TrkA scFv CRB0036 (scFv, From mSPLINT selection) scFv: DIVMTQAAPSVPVTPGESVSISCRSSKSLLHSSGITSLYWYLQRPGQSPQLPIYRMSSLASGVPDRFSVSGSGTAFTLRISRVEAEDVGVYYCMQHLEYPLTFGAGTKLELKRSGGSTSGSGKPGSGEGSSGTQVQLQQSGAELLKPGASVKISCKATGYTFSNYWIEWVKQRPGHGLEWIGEILPGSGSAHYSEKFKDKATFTADTSSNTAYMQLSSLTSEDSAVYFCTRSPPNPGYWGQGTSVTVSS | 1.1 nM | 7.07e-06 s⁻¹ | 6440 M⁻¹ s⁻¹ | binds | 13.7 nM | 3.75e-05 s⁻¹ | 2730 M⁻¹ s⁻¹ |  |  | no binding (tested: 50 ug/mL)
3 | anti-TrkA scFv CRB0069 (scFv, From hSPLINT_09 selection) scFv: QPGLTQPPSASGTPGQRVTISCTGSSSNVGAGYTVHWYQQLPGTAPTLLIYDNNNRPSGVPDRFSGSRSGTSASLAITGLRAEDEADYYCQSYDRSRVYVFGTGTKLTVLSGGSTSGSGKPGSGEGSSGTQVQLQQSGPGLVKPSQTLSLTCAISGDSVSSNSAAWNWIRQSPSRGLERLGRTYYRSKWYNDYAESVKSRIIINSGTSKNQFSLHLNSVTPEDTAVYYCGRAKDGWYDAFDIWGQGTTVTVSS | 1.67 nM | 1.02e-05 s⁻¹ | 6120 M⁻¹ s⁻¹ | binds | 5.7 nM | 3.57e-05 s⁻¹ | 6270 M⁻¹ s⁻¹ |  |  | 
4 | anti-TrkA scFv CRB0084 (scFv, From hSPLINT_09 selection) scFv: QPVLTQPPSVSVAPRQTATITCGGNYIGSKSVHWYQQKPGQDPVLVVNDDSDRPSGIPERFSGSNSANTATLTISGVEAGDEADYYCQVWDSSTEPVVFGGGTKLTVLSGGSTSGSGKPGSGEGSSGTQVQLQQWGAGLLRPSETLSLTCTVSGGSFSDSYWTWIRQSPGKGLEWIGENNHRGSTNYSPTLRSRLSISIDSSKNQFSLKLSSVTAADTAVYYCARVPYRLRSRIFDVWGQGTMVTVSS | 2.18 nM | 2.33e-05 s⁻¹ | 10700 M⁻¹ s⁻¹ | binds | 1700 nM | 0.0163 s⁻¹ | 9600 M⁻¹ s⁻¹ | no binding (tested: 50 ug/mL) | no binding (tested: 50 ug/mL) | 
5 | anti-TrkA scFv CRB0089 (scFv, From hSPLINT_09 selection) scFv: QTVVTQEPSVSGAPGQRVTISCTGSSSIIGAGYEVHWYQHLPGTAPKLLIYDSINRPSGVPDRFSGSKSGTSASLAITGLQAEDEADYYCQSSAIFGGGTKLTVLSGGSTSGSGKPGSGEGSSGTQVQLQESGPGLVKPSQTLSLTCAISGDSVSSNSAAWNWIRQSPSRGLEWLGRTFHRSRWYNEYPVSVRSRITINPDTSNNQFTLQLNSVTPDDTAVYYCARAPVAGLTFDIWGQGTMVTVSS | 14.2 nM | 3.19e-05 s⁻¹ | 2250 M⁻¹ s⁻¹ | binds | 16.9 nM | 7.76e-05 s⁻¹ | 4600 M⁻¹ s⁻¹ |  | no binding (tested: 50 ug/mL) | no binding (tested: 50 ug/mL)
6 | anti-TrkA scFv CRB0082 (scFv, From hSPLINT_09 selection) scFv: SYVLTQPPSVSVAPGTTARLSCEATKIGSQRLHWYQQKPGQAPVMVISFDSDRPSGIPDRFSGSRSGNTATLTISGVEAGDEADYYCNSRDSSGYHLVFGGGTKLTVLSGGSTSGSGKPGSGEGSSGTQVQLQQSGPGLVKPSQTLSLTCAISGDSVSSFTVAWNWIRQSPSRGLERLGRTYRRSKDYAEYMRSRLTINADTSKNQLSLQLDSVTPDDTAVYYCARGQNSAFDLWGQRTMVTVSS | 131 nM | 0.000344 s⁻¹ | 2630 M⁻¹ s⁻¹ |  | 42.1 nM | 8.79e-05 s⁻¹ | 2090 M⁻¹ s⁻¹ |  |  | 
